From PMC8348223, “Direct Measurement of the Affinity between tBid and Bax in a Mitochondria-Like Membrane” (International Journal of Molecular Sciences, 2021)

Target: the molecule itself
Experiment: single particle fluorescence intensity (stoichiometry) analysis of confocal images; same bilayer and images as a1; event intensity normalised by the monomer brightness measured by FCS and binned into putative monomers, dimers, etc.

B1: Bax 47C labelled with HyLite488 (Bax-HyLite488) (natural protein, human, UniProt Q07812 1-192, looked up)
chain: MDGSGEQPRGGGPTSSEQIMKTGALLLQGFIQDRAGRMGGEAPELACDPVPQDASTKKLSEALKRIGDELDSNMELQRMIAAVDTDSPREVFFRVAADMFSDGNFNWGRVVALFYFASKLVLKALATKVPELIRTIMGWTLDFLRERLLGWIQDQGGWDGLLSYFGTPTWQTVTIFVAGVLTASLTIWKKMG
modifications: HyLite488 bound by maleimide chemistry to the cysteine at position 47
notes: full-length human Bax; the two endogenous cysteines (62 and 126) are replaced with alanine, and leucine 47 is changed to cysteine; Labelling efficiency 81%; also called Bax-HiLyte488
Question: Does B1 bind?
Answer: binds
